The target of test [1] is Human PSGL-1-Fc (human) (UniProt Q14242). Briefly: ELISA; binding curves of the VISTA-Fc mutants E125A and F62A (Supplementary Fig. S6D, S6E); conditions not given. For orientation: ELISA stands for enzyme-linked immunosorbent assay.
The target of test [2] is hVSIG3-Fc (human) (UniProt Q5DX21). The test is described as above.

Bounds are passed on as bounds.

Human PSGL-1-Fc (human), sequence (Q14242 42-320): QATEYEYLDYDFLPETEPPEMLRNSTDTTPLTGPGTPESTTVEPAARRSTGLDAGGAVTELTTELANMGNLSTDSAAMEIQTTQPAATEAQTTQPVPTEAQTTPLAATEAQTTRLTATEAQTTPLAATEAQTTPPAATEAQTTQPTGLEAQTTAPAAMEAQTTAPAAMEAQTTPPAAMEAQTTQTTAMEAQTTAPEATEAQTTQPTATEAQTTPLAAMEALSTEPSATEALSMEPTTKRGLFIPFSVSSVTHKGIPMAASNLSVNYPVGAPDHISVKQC
hVSIG3-Fc (human), sequence (Q5DX21 23-241): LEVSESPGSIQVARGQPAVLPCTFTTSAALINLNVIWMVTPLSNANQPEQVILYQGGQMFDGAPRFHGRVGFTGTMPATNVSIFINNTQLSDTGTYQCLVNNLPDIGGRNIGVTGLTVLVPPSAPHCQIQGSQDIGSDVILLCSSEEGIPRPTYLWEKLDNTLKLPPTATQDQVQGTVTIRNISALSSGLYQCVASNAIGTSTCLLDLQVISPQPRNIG

For the substance soluble hVISTA-Fc E125A (Fc fusion), in test [1], the fold affinity over the WT VISTA interaction was over 2 fold.
As to soluble hVISTA-Fc F62A (Fc fusion), in test [2], the fold affinity over the WT VISTA interaction was over 2 fold.

(Values after PMC7494997.)
